From publication PMC10750099, “Mapping immunological and host receptor binding determinants of SARS-CoV spike protein utilizing the Qubevirus platform” (The Journal of Biological Chemistry, 2023)

Target: T1, recombinant human angiotensin-converting enzyme 2 (human, UniProt Q9BYF1 18-740)
T1 construct: also called rhACE2; hACE2
Assay: ELISA
Details: both partners purified

T1 sequence (Q9BYF1 18-740): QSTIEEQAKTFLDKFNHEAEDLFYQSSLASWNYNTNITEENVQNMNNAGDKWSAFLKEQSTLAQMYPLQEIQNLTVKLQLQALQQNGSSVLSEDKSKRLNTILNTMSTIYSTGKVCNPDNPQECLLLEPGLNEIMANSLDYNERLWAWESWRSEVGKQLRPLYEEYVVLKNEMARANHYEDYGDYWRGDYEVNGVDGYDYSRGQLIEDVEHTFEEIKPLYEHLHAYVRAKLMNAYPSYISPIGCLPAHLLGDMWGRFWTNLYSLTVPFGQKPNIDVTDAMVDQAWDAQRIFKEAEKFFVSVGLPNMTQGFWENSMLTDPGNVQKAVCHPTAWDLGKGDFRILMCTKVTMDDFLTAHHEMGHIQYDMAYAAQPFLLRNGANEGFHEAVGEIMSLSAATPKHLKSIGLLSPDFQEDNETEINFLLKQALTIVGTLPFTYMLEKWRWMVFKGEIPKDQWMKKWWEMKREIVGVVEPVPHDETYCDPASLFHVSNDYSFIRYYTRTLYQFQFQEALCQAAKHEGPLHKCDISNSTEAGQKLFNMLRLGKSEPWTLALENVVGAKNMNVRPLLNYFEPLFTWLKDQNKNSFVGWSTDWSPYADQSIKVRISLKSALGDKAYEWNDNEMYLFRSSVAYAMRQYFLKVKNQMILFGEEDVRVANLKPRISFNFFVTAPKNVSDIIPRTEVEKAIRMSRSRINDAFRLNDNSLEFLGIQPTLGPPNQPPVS

B1: recombinant Qβ phage displaying the rhACE2-binding motif S437-492 of SARS-CoV spike fragment F6 on A1 (domain or fragment)
chain: NYKYRYLRHGKLRPFERDISNVPFSPDGKPCTPPALNCYWPLNDYGFYTTTGIGYQ
notes: also called GF6 motif (S437-492)
binding result: binds
